According to patent US20260028608A1:

B1: pCART239, a variant IdeZ polypeptide of the invention (enzyme)
chain: MDDYQRNATEAYAKEVPHQITSVWTKGVTPPEQFTQGEDVIHAPYLAHQGWYDITKAFNGKDDLLCGAATAGNMLHWWFDQNKTEIEAYLSKHPEKQKIIFRNQELFDLKAAIDTKDSQTNSQLFNYFRDKAFPNLSARQLGVMPDLVLDMFINGYYLNVFKTQSTDVNRPYQDKDKRGGIFDAVFTRGNQTTLLTARHDLKNKGLNDISTIIKQELTEGRALALSHTYANVSISHVINLWGADFNAEGNLEAIYVTDSDANASIGMKKYFVGINAHGHVAISAKKIEGENIGAQVLGLFTLSSGKDIWQKLSGGGHHHHHH
B2: N240, a variant IdeZ polypeptide of the invention (enzyme)
chain: MDDYQRNATEAYAKEVPHQITSVWTKGVTPPEQFTQGEDVIHAPYLAHQGWYDITKAFNGKDDLLCGAATAGNMLHWWFDQNKTEIEAYLSKHPEKQKIIFRNQELFDLKAAIDTKDSQTNSQLFNYFRDKAFPNLSARQLGVMPDLVLDMFINGYYLNVFKTQSTDVNRPYQDKDKRGGIFDAVFTRGNQTTLLTARHDLKNKGLNDISTIIKQELTEGRALALSHTYANVSISHVINLWGADFNAEGNLEAIYVTDSDANASIGMKKYFVGINAHGHVAISAKKIEGENIGAQVLGLFTLSSGKDIWQKLS

Tests used:
[1] = target: IgG in human serum pool from 100 individuals; assay: cell-based or functional assay
[2] = target: Human IgG (fixed concentration, MSD potency assay of Example 4); assay: cell-based or functional assay

Row | Binder | enzyme concentration at which all IgG were converted to scIgG, serum pool with 0.1 mg/ml pCART243 (SDS-PAGE) [1] | mean relative potency (EC50Ref/EC50Test x 100%), MSD potency assay of IgG cleavage [2] | Relative Potency (%) In Serum, Plate 1 (MSD, from EC50; reference IdeS) [1] | Relative Potency (%) In Serum, Plate 1 (MSD, from EC50; reference IdeS; separate dilutions) [1] | Relative Potency (%) In Serum, Plate 2 (MSD, from EC50; reference IdeS) [1] | Relative Potency (%) In Serum, Plate 2 (MSD, from EC50; reference IdeS; separate dilutions) [1] | Relative Potency (%) In serum, Mean value (MSD, from EC50; reference IdeS) [1] | Relative Potency (%) In serum, Mean value (MSD, from EC50; reference IdeS; separate dilutions) [1]
1 | B1 | 0.5 µg/ml |  |  |  |  |  |  | 
2 | B2 |  | 300% | 151% | 137% | 132% | 146% | 142% | 142%
